PMC9127584 (2022)
Where “and” joins values, the source holds several entries; their conditions need not be identical. Identical values can stand only once.

B1: HsTAF4_TAFH (protein)
chain: TSSAATETMENVKKCKNFLSTLIKLASSGKQSTETAANVKELVQNLLDGKIEAEDFTSRLYRELNSSPQPYLVPFLKRSLPALRQLTPDSAAFIQQS
B2: AtTAF4 180-254 (protein)
chain: NVNPINRNPKQVPFAALLPTLMNQLDKDRALQLRTLYARLKKNEIPKEGFTRHMKDIVGDQMLRMAVSKLQQVNY
B3: AtTAF4_RST (protein)
chain: NPINRNPKQVPFAALLPTLMNQLDKDRALQLRTLYARLKKNEIPKEGFTRHMKDIVGDQMLRMAVSKLQQVNY
B4: AtRCD1_RST (protein)
chain: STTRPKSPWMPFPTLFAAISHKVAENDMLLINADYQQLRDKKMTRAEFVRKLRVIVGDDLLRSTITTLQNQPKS

How the values were obtained:
[1] = biological target: DREB2A 243-272 (Arabidopsis thaliana) (UniProt O82132); test: ITC; conditions: cited from earlier work
[2] = biological target: ANAC013 254-274 (Arabidopsis thaliana) (UniProt F4IED2); test: ITC; conditions: cited from earlier work
DREB2A = biological target: T1, DREB2A (Arabidopsis thaliana (Mouse-ear cress), UniProt O82132); test: ITC 25 C
T1 chain: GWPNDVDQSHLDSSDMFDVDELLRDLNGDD

ANAC013 254-274 = biological target: T2, ANAC013 254-274 (Arabidopsis thaliana, UniProt F4IED2); test: ITC
T2 chain: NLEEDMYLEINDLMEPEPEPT

DREB2A 243-272 = biological target: T3, DREB2A 243-272 (Arabidopsis thaliana, UniProt O82132); test: ITC
T3 chain: T1 chain

ANAC013 = biological target: T4, ANAC013 (Arabidopsis thaliana (Mouse-ear cress), UniProt F4IED2); test: ITC 25 C
T4 chain: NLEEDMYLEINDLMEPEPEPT

Molecule	Kd [1] [nM]	Kd (DREB2A) [nM]	Kd (ANAC013) [nM]	further results
RCD1 499-572 (from UniProt Q8RY59)	16	–	–	Kd [2]: 9 nM
RCD1 RST (from UniProt Q8RY59)	16	–	–	–
B1	–	110	–	–
B2	–	–	–	Kd (ANAC013 254-274): 1080 nM; Kd (DREB2A 243-272): 740 nM and 1050 nM
B3	–	740	1080	–
B4	–	16	9	–
